Test results reported in the Human Domainome abundance scans (Beltran et al. 2025).

B1: Tumor protein 63, residues 545 to 610; numbered along this chain, Q9H3D4 (parent)
chain: TDCSIVSFLARLGCSSCLDYFTTQGLTTIYQIEHYSMDDLASLKIPEQFRHAIWKGILDHRQLHEF

Variants of: B1
Test: abundance fitness (aPCA) (normalised: wild type 0, dead -1); higher = more abundant; growth selection in yeast, the domain comes from the species named
Conditions: Homo sapiens

Abundance fitness: each site, then its substitutions
T27: A -0.105; Q -0.049; C -0.133; H -0.005; N -0.024; M -0.107; R -0.053; V -0.044; G -0.123; I -0.075; P -0.82; K -0.032; S -0.022; L -0.084; Y -0.079; E -0.04; F -0.063; D -0.057; W -0.135
Q24: A -0.025; D -0.152; F -0.12; M -0.067; C -0.048; K -0.018; P -0.21; H -0.015; V -0.04; N -0.089; S -0.037; E -0.039; R -0.023; Y -0.121; I -0.073; W -0.138; L -0.081; T -0.062; G -0.081
T23: D -0.027; N 0.002; E -0.02; W -0.105; Q 0; H 0.076; C -0.037; Y -0.096; R -0.02; V -0.044; A -0.023; K -0.008; S -0.037; I -0.072; P -0.093; M -0.01; L -0.03; G -0.004
T28: H -0.056; P -0.82; M -0.038; I -0.192; F -0.063; V -0.1; N -0.087; C -0.211; A -0.065; Q -0.012; W -0.04; Y -0.056; R -0.051; L -0.084; K -0.028; G -0.069; D -0.021
F21: S -0.773; V -1; H -0.975; K -1.15; A -1.02; T -1.13; R -0.964; N -0.962; W -1.04; I -0.737; D -1.03; L -0.56; E -0.983; C -1.01; Y -0.85; Q -0.965; G -0.986
L26: V -0.054; T -0.272; N -0.414; F -0.106; C -0.174; P -0.692; Y -0.149; W -0.435; R -0.436; A -0.271; D -0.552; M -0.112; Q -0.345; I -0.014; H -0.225; G -0.935
C14: Y -0.076; T -0.143; S -0.128; F -0.111; W -0.61; V -0.027; N -0.34; I -0.068; H -0.12; M -0.014; E -0.42; K -0.125; P -0.889; R -0.222; L 0.023
T22: A -0.023; V -0.036; G -0.1; N -0.066; D -0.039; H -0.04; P -0.78; E -0.014; M -0.098; I -0.027; W -0.096; C -0.166; Y -0.177; F -0.102; Q -0.026; L -0.021; K -0.017
L12: Y -0.048; I 0.021; V -0.047; E -0.285; C -0.087; N -0.107; S -0.119; T -0.06; M -0.05; R -0.112; A -0.068; W -0.072; H -0.099; F -0.149; K -0.146; G -0.648; P -0.726; D -0.836; Q -0.074
C17: T -0.087; D -1.05; H -0.525; F -0.299; E -0.377; Q -0.147; K -0.619; V -0.077; N -0.359; R -0.838; M -0.025; Y -0.323; S -0.164; L -0.085; G -0.584; P -0.784; I -0.124
D19: L -0.089; G -0.032; T -0.002; A -0.05; V -0.081; N 0.004; C -0.079; E -0.015; R -0.019; P 0.004; I -0.067; Y -0.103; F -0.09; M -0.086; W -0.058; K -0.024; Q -0.087
Y30: L -0.044; D 0.009; E -0.016; C 0.005; F -0.112; I -0.049; H 0.057; M -0.025; K 0.001; G 0
L18: V -0.013; S -0.018; I -0.036; A -0.008; W -0.203; P -0.551; E -0.014; M -0.008; D -0.09; G -0.08; F -0.16; H -0.126; Q -0.002; R -0.072; T -0.008; K 0.061; Y -0.047; C 0.007; N -0.047
S15: D -0.064; H -0.031; K -0.037; V -0.077; W -0.179; R -0.052; M -0.076; E -0.067; I -0.042; A -0.046; T 0; F -0.157; G -0.059; N -0.034; Q 0.008; Y -0.096; C -0.057; P -0.086; L -0.061
G13: M -0.178; D 0.004; W -0.829; T -0.188; P -0.935; N -0.013; I -0.814; R -0.077; L -0.438; H -0.174; E -0.071; Y -0.298; Q -0.04; A -0.117; S -0.076; V -0.804; F -0.45
I29: V -0.019; A -0.175; W -0.052; N -0.719; P -0.309; T -0.046; D -0.42; S -0.245; F 0.063; Q -0.355; E -0.366; L -0.027; M 0.042; G -0.701; K -0.366; H -0.432; Y -0.049; R -0.285
R11: D -0.09; T -0.023; N -0.093; K -0.02; F -0.268; V -0.171; Y -0.221; H -0.127; P -0.133; I -0.126; Q -0.08; M -0.111; G -0.071; E -0.038
S16: A -0.037; I -0.089; P -0.006; R -0.092; T -0.073; F -0.106; D -0.012; Y -0.156; E -0.033; K -0.12; C 0.016; G -0.023; H -0.059; W -0.165
G25: A -0.118; I -1; M -0.362; L -0.582; E -0.067; R -0.093; P -0.885; V -0.866; C -0.143; T -0.401; N -0.048; F -0.549; W -0.733; H -0.099; Y -0.349; Q -0.116; S -0.062
Y20: E -0.139; G -0.268; K -0.02; V -0.109; D -0.175; L -0.044; N -0.022; M -0.02; R -0.043; W -0.097; P -0.387; A -0.028; I -0.002; C -0.08; Q -0.09
